According to the Human Domainome abundance scans (Beltran et al. 2025):
± gives the uncertainty stated by the source.

Assay: abundance fitness (aPCA) (normalised: wild type 0, dead -1); higher = more abundant; growth selection in yeast, the domain comes from the species named
Conditions: Homo sapiens

In order of rising abundance fitness:
1. Transcriptional activator Myb W185Q, P10242  -1.05 ± 0.25
2. Transcriptional activator Myb Y156P, P10242  -0.859 ± 0.1
3. Transcriptional activator Myb W185T, P10242  -0.705 ± 0.12
4. Transcriptional activator Myb W185G, P10242  -0.702 ± 0.046
5. Transcriptional activator Myb W185P, P10242  -0.688 ± 0.15
6. Transcriptional activator Myb W185R, P10242  -0.686 ± 0.066
7. Transcriptional activator Myb W185S, P10242  -0.648 ± 0.083
8. Transcriptional activator Myb W185K, P10242  -0.553 ± 0.11
9. Transcriptional activator Myb W185N, P10242  -0.55 ± 0.14
10. Transcriptional activator Myb W185L, P10242  -0.509 ± 0.067
11. Transcriptional activator Myb Y156N, P10242  -0.33 ± 0.12
12. Transcriptional activator Myb W185M, P10242  -0.327 ± 0.13
13. Transcriptional activator Myb W185V, P10242  -0.246 ± 0.053
14. Transcriptional activator Myb Y156G, P10242  -0.237 ± 0.034
15. Transcriptional activator Myb Y198C, P10242  -0.16 ± 0.14
16. Transcriptional activator Myb Y198H, P10242  -0.145 ± 0.2
17. Transcriptional activator Myb Y198W, P10242  -0.133 ± 0.095
18. Transcriptional activator Myb Y156K, P10242  -0.13 ± 0.062
19. Transcriptional activator Myb Y156E, P10242  -0.124 ± 0.055
20. Transcriptional activator Myb Y156R, P10242  -0.102 ± 0.037
21. Transcriptional activator Myb Y156T, P10242  -0.09 ± 0.072
22. Transcriptional activator Myb Y156W, P10242  -0.074 ± 0.046
23. Transcriptional activator Myb Y198T, P10242  -0.071 ± 0.1
24. Transcriptional activator Myb Y156C, P10242  -0.069 ± 0.076
25. Transcriptional activator Myb Y156I, P10242  -0.061 ± 0.13
26. Transcriptional activator Myb Y156A, P10242  -0.056 ± 0.049
27. Transcriptional activator Myb Y156V, P10242  -0.056 ± 0.046
28. Transcriptional activator Myb Y156D, P10242  -0.049 ± 0.086
29. Transcriptional activator Myb Y198V, P10242  -0.042 ± 0.069
30. Transcriptional activator Myb Y198G, P10242  -0.041 ± 0.065
31. Transcriptional activator Myb Y156S, P10242  -0.036 ± 0.047
32. Transcriptional activator Myb Y198D, P10242  -0.035 ± 0.12
33. Transcriptional activator Myb W185Y, P10242  -0.034 ± 0.14
34. Transcriptional activator Myb Y198F, P10242  -0.033 ± 0.17
35. Transcriptional activator Myb Y156H, P10242  -0.021 ± 0.11
36. Transcriptional activator Myb Y198Q, P10242  -0.02 ± 0.1
37. Transcriptional activator Myb Y156Q, P10242  -0.014 ± 0.073
38. Transcriptional activator Myb Y198K, P10242  -0.011 ± 0.13
39. Transcriptional activator Myb Y198M, P10242  -0.01 ± 0.1
40. Transcriptional activator Myb Y156L, P10242  0.004 ± 0.047
41. Transcriptional activator Myb Y198A, P10242  0.01 ± 0.086
42. Transcriptional activator Myb Y198P, P10242  0.016 ± 0.14
43. Transcriptional activator Myb Y198S, P10242  0.025 ± 0.065
44. Transcriptional activator Myb Y198L, P10242  0.027 ± 0.089
45. Transcriptional activator Myb Y198R, P10242  0.054 ± 0.063
46. Transcriptional activator Myb Y198E, P10242  0.057 ± 0.099
47. Transcriptional activator Myb Y198N, P10242  0.067 ± 0.11
48. Transcriptional activator Myb Y156F, P10242  0.091 ± 0.11
49. Transcriptional activator Myb Y198I, P10242  0.093 ± 0.12
